From publication PMC5528828

Molecular target: MAK33 VL S20N (murine)
Test: negative-stain transmission electron microscopy; non-fibrillar oligomers; 50 uM monomer, 25 mM acetic acid, 25 mM phosphoric acid, 50 mM NaCl, pH 2, room temperature, quiescent; number of monomers estimated from the mean particle diameter

For MAK33 VL S20N (domain or fragment), which stoichiometry N (monomers per oligomer) is on record?
The stoichiometry N (monomers per oligomer) was 30.
